How the values were obtained:
HEK293 (293) cells = test: In vitro cell viability (cell kill) assay, CCK8; assay type: cell-based, human
In short: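 Cells stably overexpressing human PRLR (transfected or lentiviral, FACS-enriched) were treated for 3 days with anti-PRLR-SMCC-DM1 ADCs or free DM1-SMe at 500 nM to 5 pM. HEK293 and PC3 viability was read by CCK8 OD450; MCF7 by Hoechst nuclear counts. Digitonin background subtracted; % of untreated; IC50 from 10-point four-parameter fit.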

PC3 cells = test: In vitro cell viability (cell kill) assay, CCK8; assay type: cell-based, human; settings: Table 18
In short: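 hPRLR stable lines; anti-PRLR-DM1 ADC (SMCC) or DM1-SMe, 10-pt 500 nM–5 pM, 3 d. CCK8 OD450 final 1-3 h (293/PC3); Hoechst nuclear count imaging (MCF7).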

T47D cells = test: In vitro cell viability (cell kill) assay, CCK8; assay type: cell-based, human; settings: T47D cells (PRLR 12× above background), 3 days; read-out: IC50, growth inhibition / cell viability
In short: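 T47D cells grown overnight, then exposed for 3 days to anti-PRLR-DM1 ADCs (SMCC non-cleavable linker) or DM1-SMe at 500 nM to 5 pM.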

MCF7 tumors = test: MCF7 breast tumor xenograft, tumor volume; assay type: in vivo, NCr nude mice
Procedure: After MCF7 or MCF7/PRLR tumors reached an average volume of ˜150-200 mm^3 (14-16 days post implantation), mice were randomized into treatment groups (n=8-9 mice/group) and received a single dose or three once-weekly doses of H1H6958N2-DM1, control ADC, or vehicle control, administered systemically by intravenous tail-vein injection. Tumor size and body weight were measured in vivo twice per week throughout the duration of the study.
The T47Dv11 model was used to assess the activity of H1H6958N2-DM1 in a model with significant levels of endogenous PRLR. As parental T47D cells are poorly tumorigenic, in vivo passaging was employed to develop a variant with consistent tumorigenicity. Initially, 10×10^6 parental T47D cells were implanted subcutaneously (SC) into the left flank of female C.B.-17 SCID mice (Taconic, Hudson N.Y.). Tumors were supplemented with a 90-day release 1.7 mg estrogen pellet (Innovative Research America). Where T47D tumors were observed, they were excised and cut into 3 mm fragments and subsequently implanted into the left flank of separate female C.B.-17 SCID mice. Subsequent passaging was performed until a large tumor was disaggregated into a single cell suspension. The cells (named T47Dv11) from this tumor were then cultured in vitro and expanded. […] For efficacy studies, mice were implanted with 7.5×10^6 T47Dv11 cells into the left flank of female C.B.-17 SCID mice supplemented with a 90-day release 0.72 mg/pellet estrogen pellet. For MCF7 and MCF7/PRLR tumor xenografts, 2×10^7 MCF7/PRLR cells were implanted SC into the left mammary fat pad of female NCr nude mice (7-8 weeks old) supplemented with 90-day release 0.72 mg/pellet estrogen pellets. Tumors were measured with calipers twice a week for the duration of each study. Tumor volume was calculated using the formula TV=(length×width^2)/2.

T47DvII tumors = test: Phospho-histone-H3 (pHH3) IHC in treated tumors, mitotic arrest; assay type: in vivo, mice
Procedure: In order to validate the activity of DM1 on microtubule activity, the induction of mitotic arrest following treatment of T47DvII tumors with H1H6958N2-DM1 in vivo was assessed by phospho-histone-H3 (pHH3) IHC. Mice were implanted with T47DvII cells and tumors were grown for 15 days where mice were randomized based on tumor volume and dosed intravenously with either vehicle, H1H6958N2-DM1 at 5 or 15 mg/kg or Control ADC at 15 mg/kg (N=4-5). At 24, 48 or 72 hours post-treatment, mice were euthanized and tumors processed as FFPE samples for IHC analysis. Tumor sections were then stained with anti-phospho Histone H3 (pHH3) antibody (clone: Ser10, Cell Signaling Technology #9701) as a measure of mitotic cells. Images were scanned on an Aperio XT Scan scope at 40× (Leica Systems). PHH3 positive nuclear signals were imaged and quantified with the Halo CytoNuclear Count algorithm (Halo, Indica Labs). The percent of positive cells in each tumor was quantified for each group and an average calculated for each treatment condition.

B1: H1H6958N2-DM1: anti-PRLR antibody H1H6958N2 conjugated to the maytansinoid DM1 through an SMCC linker (conjugate)
VH: QVQLVESGGGVVQPGRSLRLSCGASGFTFRNYGMQWVRQGPGKGLEWVTLISFDGNDKYYADSVKGRFTISRDNSKNTLFLQMNSLRTEDTAVYYCARGGDFDYWGQGTLVTVSS
VL: DIQMTQSPSSLSASVGDRVTITCRASQDIRKDLGWYQQKPGKAPKRLIYAASSLHSGVPSRFSGSGSGTEFTLTISSLQPEDFATYYCLQHNSYPMYTFGQGTKLEIK
With B1 the “% Kill” value (HEK293 (293) cells; 293, Table 11, 3 days) was 98%, the IC50 (HEK293 (293) cells; 293, Table 11, 3 days) was 75 nM and the “% Kill” value (HEK293 (293) cells; HEK293, Table 13, + 15 nM PRL) was 86%. The IC50 (HEK293 (293) cells; HEK293, Table 13, + 15 nM PRL) was 110 nM, the “% Kill” value (PC3 cells) was 81% and the IC50 (PC3 cells) was 110 nM. The IC50 (T47D cells) was 1.3 nM, the “anti-tumor activity” value (MCF7 tumors; repeat treatment (q7dx3), 10 and 15 mg/kg, relative to control ADC) was “significantly inhibited MCF7 tumor growth” and the “anti-tumor activity” value (MCF7 tumors; single dose 15 mg/kg, relative to control ADC) was “significantly inhibited the growth of the MCF7 tumors”. The “anti-tumor activity” value (MCF7 tumors; single dose of 5 or 10 mg/kg) was “moderate in vivo anti-tumor activity”, the “pHH3 immunoreactivity in tumors” value (T47DvII tumors; 5 mg/kg intravenously, relative to vehicle) was “significant increase relative to vehicle treated tumors” and the “pHH3 levels in tumors” value (T47DvII tumors; 15 mg/kg, data not shown) was “further increase in pHH3 levels”. The “time of peak pHH3 levels post treatment” value (T47DvII tumors; sampled at 24, 48 or 72 hours) was 48 hours.

From patent US10925971B2, “Methods of treating PRLR positive breast cancer” (Regeneron Pharmaceuticals, Inc., priority 2016, dated 2021)
